From article PMC13043812 come the findings set out here.

B1: unnamed (parent)
chain 1: MVTHELLVKAAGAVLTGLVGVSAYETLRKALGTAPIRRASVTVMEWGLRGTRRAEAAAESARLTVADVVAEARGRIGEEAPLPAGARVDE
chain 2: MTTVVDAEVQLTVVSDAAGRMRVQATGFQFDAGRAVAIEDTVGKVAGVQAVHAYPRTASIVIWYSRAICDTAAILSAIIDAETVPA

In the assay the parent is B1. To be noted: with partner chain of the complex shown; in M. smegmatis; parent: 100; read off a plot.
Regarding chain 1 MVTHELLVKAAGAVLTGLVGVSAYETLRKALGTAPIRRASVTVMEWGLRGTRRAEAAAASARLTVADVVAAARGRIGEEAPLPAGARVDE [chain 1 E59A E71A], the response stood at 0.015 % GFP+ cells. The result for chain 1 MVTHELLVKAAGAVLTGLVGVSAYETLRKALGTAPIRRASVTVMEWGLRGTRRAEAAAASARLTVADVVAEARGRIGEEAPLPAGARVDE [chain 1 E59A] reads 0.31 % GFP+ cells. The result for chain 1 MVTHELLVKAAGAVLTGLVGVSAYETLRKALGTAPIRRASVTVMEWGLRGTRRAEAAAESARLTVADVVAAARGRIGEEAPLPAGARVDE [chain 1 E71A] reads 8.5 % GFP+ cells.
